± gives the uncertainty stated by the source.

This data set in a line: amyloid nucleation score (Sup35N fusion, yeast selection) (log enrichment); library NNK1; higher = more nucleation; inactive = no reads after selection. A digest of the protocol: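 On medium lacking adenine and uracil, psi-negative yeast expressing peptides of 20 random codons fused to Sup35N were grown 7 days at 30°C after a 24-hour induction with 100 μM copper sulfate. Illumina sequencing of input and output plasmid inserts gave the reads, and sequences under 100 input reads were excluded. The nucleation score is the DiMSum log enrichment of output over input reads, centred on the mode score of non-aggregating sequences.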
Substance GNCSMSVGATLEGLMVRVHI returned an amyloid nucleation score of 0.027 ± 0.68.

The substance GNWYLCTGF gave an amyloid nucleation score of 1.58 ± 0.1.

For GPDRLMDILAMPGGYSMLSM, the amyloid nucleation score worked out at 1.03 ± 0.54.

GPILDSNKASIPIV: the amyloid nucleation score was -0.322 ± 0.96.

Substance GPTATVPPRHTREFILFKYS came in with an amyloid nucleation score of -0.593 ± 1.

As to GPTCDLRFAFNPHVTYGGHG, the amyloid nucleation score amounted to 1.29 ± 0.64.

Take GPVVLRTGLLVRFTYHIGRE: the amyloid nucleation score came to 1.15 ± 0.24.

Turning to GPYCHGWNLKNERAVSLRG, the amyloid nucleation score was -0.647 ± 0.47.

GQICAWPITMVWAAGR came in with an amyloid nucleation score of -0.391 ± 1.5.

In turn, GQIIMCAARLWLGKGCVS came in with an amyloid nucleation score of -0.588 ± 1.

On to GQLWGEVVIVYCKFAMEWAY, for which the amyloid nucleation score came out at 0.898 ± 0.27.

Consider GQVHRFIWLVT, for which the amyloid nucleation score was -0.11 ± 0.3.

With GRAEAKLY, the amyloid nucleation score is -0.118 ± 0.31.

In turn, GRCDWTVLDMVDMIGKVESQ showed an amyloid nucleation score of 0.273 ± 0.25.

Substance GRFFRRLRECNLPHSNIHAY came in with an amyloid nucleation score of 0.343 ± 0.42.

As to GRGVLDYNGTTKKARVNRLC, the amyloid nucleation score result is “inactive”.

As for GRISRFLFQRDNVWPSLAKQ, the amyloid nucleation score is 0.171 ± 0.52.

As for GRNRRDVMSRSYSVVG, the amyloid nucleation score was -0.72 ± 1.1.

The substance GRPICYKTHFSSLYVSEVDR came in with an amyloid nucleation score of -1.19 ± 1.4.

Substance GRRLIKSTQCGVNKVDSAIW gave an amyloid nucleation score of -0.184 ± 0.27.

Take GRRRSDQASTVRRSLCEGMA: the amyloid nucleation score turned out to be 0.451 ± 0.67.

Take GRSGCCWMS: the amyloid nucleation score turned out to be 2.77 ± 0.19.

As to GRSSD, the amyloid nucleation score was -0.164 ± 0.84.

The substance GRWWRLLLYCLVAVLAFVGF returned an amyloid nucleation score of 1.33 ± 0.6.

Consider GSALPSIWSWERFRSLLRNL, for which the amyloid nucleation score was -0.221 ± 0.45.

Substance GSCCVKCDIHI registered an amyloid nucleation score of 0.167 ± 0.53.

As to GSCFTVWMIGPGRRTLLQVL, the amyloid nucleation score is -0.079 ± 0.54.

As to GSDMIVYIYRCTVTLMGSST, the amyloid nucleation score turned out to be 3.83 ± 0.099.

Substance GSDWTRMMNVLAGGGGVGSE returned an amyloid nucleation score of -0.484 ± 0.58.

In turn, GSFRMVSMLSGISWARVARF registered an amyloid nucleation score of 3.04 ± 0.18.

GSGSAPCCTIAFMMLFGTEG yielded an amyloid nucleation score of -0.057 ± 0.81.

With GSGSDGQVGWFVANRDERRE, the amyloid nucleation score stood at 0.495 ± 0.38.

The substance GSGVGKLCGLCSPG returned an amyloid nucleation score of 0.274 ± 0.69.

As to GSICSVVVTMLVFSNKVTSL, the amyloid nucleation score is -0.353 ± 0.6.

Substance GSLWFRLGEFARTNFFNSVF yielded an amyloid nucleation score of 0.05 ± 0.26.

Substance GSMMWSMTADKLKFAGSVVC showed an amyloid nucleation score of 0.889 ± 0.54.

For GSMWGGFPVG, the amyloid nucleation score was 1.07 ± 0.85.

Regarding GSNTFI, the amyloid nucleation score is 0.243 ± 0.31.

Substance GSNVSSTM showed an amyloid nucleation score of 0.537 ± 0.51.

For the substance GSSAFRINLFFLSIVGYRRS, the amyloid nucleation score was 5.61 ± 0.062.

For GSSCNSLPFYVRDRFNTPCV, the amyloid nucleation score entry is “inactive”.

For the substance GSSFGFDYFDAHPMYLVTSY, the amyloid nucleation score amounted to 1.37 ± 0.48.

Turning to GSSGAWVCSGCL, the amyloid nucleation score is -0.626 ± 1.2.

For the substance GSSTMIGMANSFVVGLDSNE, the amyloid nucleation score result was “inactive”.

The substance GSTRVRTCGRKLMCALS came in with an amyloid nucleation score of 0.835 ± 0.24.

For the substance GSVDQSMC, the amyloid nucleation score stood at 0.968 ± 0.45.

In the case of GSVSVSQQS, the amyloid nucleation score was -1.4 ± 2.4.

In turn, GSVVYVIQGDMKRVLGFNGM showed an amyloid nucleation score of 5.42 ± 0.096.

For GSWFYIFRV, the amyloid nucleation score came out at 0.089 ± 0.34.

Turning to GSWIFCVFHLNMDFCSMGST, the amyloid nucleation score was -0.023 ± 0.6.

GSYECV came in with an amyloid nucleation score of 0.734 ± 1.2.

GTCYFTDQR had an amyloid nucleation score of 0.491 ± 0.37.

In the case of GTFISLLLS, the amyloid nucleation score is -0.077 ± 0.26.

Take GTGCFRCTVSTVGSVFIRDE: the amyloid nucleation score was -0.27 ± 0.64.

Regarding GTGTAPGINPWLLDSFPAPV, the amyloid nucleation score stood at 0.378 ± 0.28.

In the case of GTIENFHGVTN, the amyloid nucleation score was determined as 0.413 ± 0.49.

In turn, GTMVSLKTGFKDTSRLLNWS had an amyloid nucleation score of -0.748 ± 0.41.

GTNCHL returned an amyloid nucleation score of -0.036 ± 0.79.

As to GTSESLGYYSVLRMDIYFGS, the amyloid nucleation score entry was “inactive”.

Regarding GVDKEINLFMYRPYRFVSGE, the amyloid nucleation score stood at 1.1 ± 0.24.

GVGGLWVEDSWRQRLDSEWA yielded an amyloid nucleation score of -0.014 ± 0.48.

Turning to GVGWVDGWSGSCFHWTGWCT, the amyloid nucleation score was found to be 3.46 ± 0.078.

The substance GVKSQTMLGLQRSAAFILCY registered an amyloid nucleation score of -0.127 ± 0.55.

Substance GVLNVL registered an amyloid nucleation score of -0.418 ± 0.62.

With GVLSKSSKLFNCKDYCHSKY, the amyloid nucleation score was found to be 1.13 ± 0.35.

GVLYSDTLT yielded an amyloid nucleation score of 1.5 ± 0.14.

On to GVMQFENIYGFVALMRRLMF, for which the amyloid nucleation score came to 0.668 ± 0.62.

Regarding GVPVYAVFLVDAMMYVCCMF, the amyloid nucleation score stood at 3.51 ± 0.14.

Substance GWNRTTSHWIRVFYCAVLVC gave an amyloid nucleation score of -0.346 ± 0.53.

As for GWVGLLH, the amyloid nucleation score was determined as 0.457 ± 0.31.

Turning to GYDRSGT, the amyloid nucleation score was 0.135 ± 1.2.

Regarding GYGFFWCDCYRYDRGSRWTG, the amyloid nucleation score came to 1.93 ± 0.15.

On to GYGIMANS, for which the amyloid nucleation score was -0.179 ± 0.51.

In turn, GYGYFSIVTTRMIVGVHVKC registered an amyloid nucleation score of -0.509 ± 0.57.

The substance GYIGICGNKYYFPVDRYRAC showed an amyloid nucleation score of 1.28 ± 0.57.

The substance GYILPLLDVDYVKSVMICFW returned an amyloid nucleation score of 3.8 ± 0.094.

In turn, GYISRHNAGSSAPVNVVRLR returned an amyloid nucleation score of -0.223 ± 0.65.

The substance GYLCLGSCNRSVSLLSSTGS had an amyloid nucleation score of 0.407 ± 0.47.

The substance GYLLAERDLNIATARGSLLR had an amyloid nucleation score of -0.514 ± 0.65.

For the substance GYSLYRM, the amyloid nucleation score came out at 6.746 ± 0.044.

Substance GYTTLTQGL came in with an amyloid nucleation score of -0.513 ± 1.2.

As for HAFKPSAAPQWRTYPRFRSG, the amyloid nucleation score entry is “inactive”.

The substance HALRSTLYMGSSVFLNAMDS gave an amyloid nucleation score of 0.053 ± 1.1.

With HARRRCLDGFDMQGGIFM, the amyloid nucleation score is 0.047 ± 0.47.

Substance HAWVVVGRRGGKGLEAWCPV registered an amyloid nucleation score of -0.71 ± 0.81.

For the substance HCCSYLLKR, the amyloid nucleation score was -0.174 ± 0.61.

HCFPCLVVIV yielded an amyloid nucleation score of 0.121 ± 0.36.

Substance HCFRWSMLGLRYATCPFQSD showed an amyloid nucleation score of -0.108 ± 0.37.

With HCHSPATKPALTLMMY, the amyloid nucleation score is -0.738 ± 0.93.

HCTLHSSVCSSGCWIE: the amyloid nucleation score is 1.1 ± 0.97.

Substance HCTSQ gave an amyloid nucleation score of 1.71 ± 0.13.

In turn, HCVEVSYKTSYAKELSFRVC had an amyloid nucleation score of -0.142 ± 1.1.

As for HEFNR, the amyloid nucleation score was -0.936 ± 1.6.

HEGRS registered an amyloid nucleation score of -1.25 ± 1.2.

Substance HFFDITLKADNSIILSLSKS displayed an amyloid nucleation score of 6.549 ± 0.057.

Regarding HFIFEYTSFSS, the amyloid nucleation score amounted to 0.307 ± 0.29.

In turn, HFKRWLVNLFLTEFEKSYGV had an amyloid nucleation score of -1.28 ± 0.62.

For HFVASDYHNVGSA, the amyloid nucleation score result is “inactive”.

The substance HGAFMVPT yielded an amyloid nucleation score of 0.895 ± 0.79.

The substance HGTCRC came in with an amyloid nucleation score of 0.034 ± 0.68.

In turn, HGYHVHDGALLNQHNIS yielded an amyloid nucleation score of 0.004 ± 0.57.

HHFAYWCIVWPE showed an amyloid nucleation score of 0.728 ± 0.54.

On to HHINWPGCVSRNSYKAIYDG, for which the amyloid nucleation score is -0.262 ± 0.84.

For the substance HIGYCQSVSTFSR, the amyloid nucleation score is 10.2 ± 0.046.

As to HIPNDARRLFGSMGVSRASA, the amyloid nucleation score is -0.407 ± 1.

With HISMRDFFSHLGRRVVGIMY, the amyloid nucleation score is -1.1 ± 0.45.

As to HKIHAVQLLQVRYLNKRLAG, the amyloid nucleation score amounted to 0.96 ± 0.17.

HLGAYYTGI gave an amyloid nucleation score of 0.984 ± 0.36.

With HLKRRLKFDSGTSYQLVQKV, the amyloid nucleation score turned out to be 0.177 ± 1.

With HLNNCLTRRNWTRYFSRVAP, the amyloid nucleation score turned out to be 0.95 ± 0.58.

Consider HLSEFAVGVCEVY, for which the amyloid nucleation score is 1.27 ± 0.56.

Substance HLSVFQLDLTREVANCKSWM displayed an amyloid nucleation score of 3.17 ± 0.11.

Consider HLSWLRINLPGSPHPPMSLP, for which the amyloid nucleation score came out at 3.57 ± 0.11.

HLWPVVSKGWDGFRCVSQVF gave an amyloid nucleation score of -1.25 ± 2.4.

As to HLYDC, the amyloid nucleation score entry is “inactive”.

In the case of HMAAYKVSGVKSGSPEW, the amyloid nucleation score was -0.145 ± 0.59.

Regarding HMNSVVMPRWPTLNGELGSR, the amyloid nucleation score was -0.179 ± 0.4.

HNELCFMFYSLGNCYGAGVG: the amyloid nucleation score was 5.03 ± 0.095.

Substance HNFKCHLKSCKVSNFN returned an amyloid nucleation score of -1.02 ± 2.4.

For HNFWLCAVSYQDRVMFLSVF, the amyloid nucleation score worked out at 0.497 ± 0.31.

On to HNGHPRTAWVVVQY, for which the amyloid nucleation score worked out at 0.298 ± 0.28.

The substance HPFKLGVFNISGESLSTA returned an amyloid nucleation score of -0.802 ± 2.1.

HPGMTSAASVCWFHGRVLTL: the amyloid nucleation score is 0.494 ± 0.51.

Turning to HPLQMISCNKHIQLANMQFR, the amyloid nucleation score worked out at 0.795 ± 0.37.

Take HQIYVLATETNSPMLRWKLQ: the amyloid nucleation score turned out to be 0.879 ± 0.98.

Substance HRCGLPASFIHHFVCDRAVG gave an amyloid nucleation score of -0.686 ± 1.4.

Take HRDNH: the amyloid nucleation score was -0.253 ± 0.35.

HRIITCPFTSWNH: the amyloid nucleation score was determined as 0.816 ± 0.54.

For the substance HRQGYVWYLLR, the amyloid nucleation score was 1.43 ± 0.24.

With HRRSLRVGLSDIHLLAACAE, the amyloid nucleation score was -0.897 ± 1.6.

Substance HRRSTHGMYPVPYCSSINH registered an amyloid nucleation score of 0.687 ± 0.48.

Consider HRSKS, for which the amyloid nucleation score is -0.087 ± 0.32.

Regarding HSAGVVDALRCYNFYV, the amyloid nucleation score is -0.102 ± 0.39.

Substance HSCVPICNEYSAADRSYFRY came in with an amyloid nucleation score of 0.343 ± 0.97.

In the case of HSFIYYWC, the amyloid nucleation score is 7.49 ± 0.051.

The substance HSGMRVPSMAYLVL showed an amyloid nucleation score of -0.259 ± 0.7.

Turning to HSLLVMQDVCPE, the amyloid nucleation score amounted to 0.69 ± 0.56.

For the substance HSNCVDSRCETARTS, the amyloid nucleation score stood at 1.47 ± 0.47.

Turning to HSPCMPLTCSQTWHSLDLPF, the amyloid nucleation score is -0.304 ± 0.55.

Take HSRYWSNIHSRWLTGRVRWG: the amyloid nucleation score was -0.28 ± 0.51.

Consider HSSKYRRFVSTTVTIVSVSR, for which the amyloid nucleation score stood at 4.01 ± 0.09.

In the case of HSWYEELMVVLNISSHGHLD, the amyloid nucleation score was found to be 0.351 ± 0.52.

The record behind these values is the supplement of paper PMC12042874.
